Columns and labels:
[1] = molecular target: T1, TRPA1 (Homo sapiens, UniProt O75762); test: Ion channel panel (IonWorks Barracuda): TRPA1; format: cell-based; conditions: 100% = no change, <100% = inhibition
T1 construct: host or cells: HEK293 or CHO
Method in brief: (§1)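 Transfected HEK293 or CHO cells were exposed for at least 5 min to peptides at 200 nM and 20 μM final, tested in duplicate, in HEPES-buffered physiological saline. Activation was taken as peptide-plus-agonist current over control current ×100, and inhibition as 1 minus that ratio ×100. Each channel's control was its own reference compound.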

[2] = molecular target: T2, Nav1.7 (Homo sapiens, UniProt Q15858); test: cell-based; format: cell-based; conditions: 100% = no change; for Activity of Nav1.7 with peptide, expressed as a percentage of the reference compound: peptide at 0.2 μM; for Activity of Nav1.7 with peptide (percentage of the reference compound): peptide at 20 μM
T2 construct: host or cells: HEK293 or CHO

[3] = molecular target: T3, TRPV1 (Homo sapiens, UniProt Q8NER1); test: Ion channel panel (IonWorks Barracuda): TRPV1; format: cell-based; conditions: 100% = no change, <100% = inhibition
T3 construct: host or cells: HEK293 or CHO
Method in brief: as §1

[4] = molecular target: T4, NR2A (Homo sapiens, UniProt Q12879); test: Ion channel panel (IonWorks Barracuda): NR2A; format: cell-based; conditions: 100% = no change, <100% = inhibition
T4 construct: host or cells: HEK293 or CHO
Method in brief: as §1

[5] = tested on: GABA; test: Ion channel panel (IonWorks Barracuda): GABA; format: cell-based; conditions: 100% = no change, <100% = inhibition
Method in brief: as §1

[6] = molecular target: hERG (Homo sapiens, UniProt Q12809); test: in vitro; conditions: 100% = no change, <100% = inhibition
Method in brief: as §1

[7] = molecular target: Nav1.5 (Homo sapiens, UniProt Q14524); test: in vitro; conditions: 100% = no change; for Activity of Nav1.5 with peptide, expressed as a percentage of the reference compound: peptide at 0.2 μM; for Activity of Nav1.5 with peptide (percentage of the reference compound): peptide at 20 μM
Method in brief: as §1

[8] = molecular target: T5, α4β2 (Homo sapiens, UniProt P17787+P43681); test: Ion channel panel (IonWorks Barracuda): α4β2; format: cell-based; conditions: 100% = no change, <100% = inhibition
T5 construct: host or cells: HEK293 or CHO
Method in brief: as §1

[9] = molecular target: T6, α3β4 (Homo sapiens, UniProt P30926+P32297); test: Ion channel panel (IonWorks Barracuda): α3β4; format: cell-based; conditions: 100% = no change, <100% = inhibition
T6 construct: host or cells: HEK293 or CHO
Method in brief: as §1

[10] = molecular target: T7, 5HT3a (Homo sapiens, UniProt P46098); test: Ion channel panel (IonWorks Barracuda): 5HT3a; format: cell-based
T7 construct: host or cells: HEK293 or CHO
T7 sequence (P46098 whole entry, looked up): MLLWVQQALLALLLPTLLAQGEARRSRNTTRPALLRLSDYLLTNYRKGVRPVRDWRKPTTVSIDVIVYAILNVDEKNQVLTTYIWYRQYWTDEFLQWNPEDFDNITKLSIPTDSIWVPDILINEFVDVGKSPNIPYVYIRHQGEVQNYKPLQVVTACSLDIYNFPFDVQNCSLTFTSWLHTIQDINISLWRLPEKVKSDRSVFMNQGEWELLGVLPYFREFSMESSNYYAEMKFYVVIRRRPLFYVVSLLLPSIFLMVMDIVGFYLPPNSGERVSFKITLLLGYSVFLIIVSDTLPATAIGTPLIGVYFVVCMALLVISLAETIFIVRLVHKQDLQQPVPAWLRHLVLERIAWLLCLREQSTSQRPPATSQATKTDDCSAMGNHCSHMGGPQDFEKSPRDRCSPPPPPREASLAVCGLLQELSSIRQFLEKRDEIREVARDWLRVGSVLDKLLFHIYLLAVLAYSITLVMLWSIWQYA
Method in brief: as §1

[11] = molecular target: T8, Kv2.1 (Homo sapiens, UniProt Q14721); test: cell-based; conditions: 100% = no change, <100% = inhibition
T8 construct: host or cells: HEK293 or CHO
Method in brief: as §1

[12] = molecular target: T9, Cav2.1 (Homo sapiens, UniProt O00555); test: cell-based; conditions: 100% = no change, <100% = inhibition
T9 construct: host or cells: HEK293 or CHO
Method in brief: as §1

[13] = molecular target: T10, Cav2.2 (Homo sapiens, UniProt Q00975); test: cell-based; conditions: 100% = no change, <100% = inhibition
T10 construct: host or cells: HEK293 or CHO
Method in brief: as §1

[14] = molecular target: T11, Kir2.1 (Homo sapiens, UniProt P63252); test: Ion channel panel (IonWorks Barracuda): Kir2.1; format: cell-based; conditions: 100% = no change, <100% = inhibition
T11 construct: host or cells: HEK293 or CHO
Method in brief: as §1

[15] = molecular target: T12, Kv1.1 (Homo sapiens, UniProt Q09470); test: cell-based; format: cell-based; conditions: 100% = no change, <100% = inhibition
T12 construct: host or cells: HEK293 or CHO
Method in brief: as §1

[16] = molecular target: T13, Kv1.2 (Homo sapiens, UniProt P16389); test: cell-based; format: cell-based; conditions: 100% = no change, <100% = inhibition
T13 construct: host or cells: HEK293 or CHO
Method in brief: as §1

[17] = molecular target: T14, Kv1.3 (Homo sapiens, UniProt P22001); test: cell-based; format: cell-based; conditions: 100% = no change, <100% = inhibition
T14 construct: host or cells: HEK293 or CHO
Method in brief: as §1

[18] = molecular target: T15, NR2B (Homo sapiens, UniProt Q13224); test: Ion channel panel (IonWorks Barracuda): NR2B; format: cell-based; conditions: 100% = no change, <100% = inhibition
T15 construct: host or cells: HEK293 or CHO
Method in brief: as §1

[19] = first of two Nav1.7 columns (probably TP1)
[20] = second of two Nav1.7 columns (probably TP2)
[21] = first of two Nav1.5 columns (probably TP1)
[22] = second of two Nav1.5 columns (probably TP2)

T2 sequence (Q15858 whole entry): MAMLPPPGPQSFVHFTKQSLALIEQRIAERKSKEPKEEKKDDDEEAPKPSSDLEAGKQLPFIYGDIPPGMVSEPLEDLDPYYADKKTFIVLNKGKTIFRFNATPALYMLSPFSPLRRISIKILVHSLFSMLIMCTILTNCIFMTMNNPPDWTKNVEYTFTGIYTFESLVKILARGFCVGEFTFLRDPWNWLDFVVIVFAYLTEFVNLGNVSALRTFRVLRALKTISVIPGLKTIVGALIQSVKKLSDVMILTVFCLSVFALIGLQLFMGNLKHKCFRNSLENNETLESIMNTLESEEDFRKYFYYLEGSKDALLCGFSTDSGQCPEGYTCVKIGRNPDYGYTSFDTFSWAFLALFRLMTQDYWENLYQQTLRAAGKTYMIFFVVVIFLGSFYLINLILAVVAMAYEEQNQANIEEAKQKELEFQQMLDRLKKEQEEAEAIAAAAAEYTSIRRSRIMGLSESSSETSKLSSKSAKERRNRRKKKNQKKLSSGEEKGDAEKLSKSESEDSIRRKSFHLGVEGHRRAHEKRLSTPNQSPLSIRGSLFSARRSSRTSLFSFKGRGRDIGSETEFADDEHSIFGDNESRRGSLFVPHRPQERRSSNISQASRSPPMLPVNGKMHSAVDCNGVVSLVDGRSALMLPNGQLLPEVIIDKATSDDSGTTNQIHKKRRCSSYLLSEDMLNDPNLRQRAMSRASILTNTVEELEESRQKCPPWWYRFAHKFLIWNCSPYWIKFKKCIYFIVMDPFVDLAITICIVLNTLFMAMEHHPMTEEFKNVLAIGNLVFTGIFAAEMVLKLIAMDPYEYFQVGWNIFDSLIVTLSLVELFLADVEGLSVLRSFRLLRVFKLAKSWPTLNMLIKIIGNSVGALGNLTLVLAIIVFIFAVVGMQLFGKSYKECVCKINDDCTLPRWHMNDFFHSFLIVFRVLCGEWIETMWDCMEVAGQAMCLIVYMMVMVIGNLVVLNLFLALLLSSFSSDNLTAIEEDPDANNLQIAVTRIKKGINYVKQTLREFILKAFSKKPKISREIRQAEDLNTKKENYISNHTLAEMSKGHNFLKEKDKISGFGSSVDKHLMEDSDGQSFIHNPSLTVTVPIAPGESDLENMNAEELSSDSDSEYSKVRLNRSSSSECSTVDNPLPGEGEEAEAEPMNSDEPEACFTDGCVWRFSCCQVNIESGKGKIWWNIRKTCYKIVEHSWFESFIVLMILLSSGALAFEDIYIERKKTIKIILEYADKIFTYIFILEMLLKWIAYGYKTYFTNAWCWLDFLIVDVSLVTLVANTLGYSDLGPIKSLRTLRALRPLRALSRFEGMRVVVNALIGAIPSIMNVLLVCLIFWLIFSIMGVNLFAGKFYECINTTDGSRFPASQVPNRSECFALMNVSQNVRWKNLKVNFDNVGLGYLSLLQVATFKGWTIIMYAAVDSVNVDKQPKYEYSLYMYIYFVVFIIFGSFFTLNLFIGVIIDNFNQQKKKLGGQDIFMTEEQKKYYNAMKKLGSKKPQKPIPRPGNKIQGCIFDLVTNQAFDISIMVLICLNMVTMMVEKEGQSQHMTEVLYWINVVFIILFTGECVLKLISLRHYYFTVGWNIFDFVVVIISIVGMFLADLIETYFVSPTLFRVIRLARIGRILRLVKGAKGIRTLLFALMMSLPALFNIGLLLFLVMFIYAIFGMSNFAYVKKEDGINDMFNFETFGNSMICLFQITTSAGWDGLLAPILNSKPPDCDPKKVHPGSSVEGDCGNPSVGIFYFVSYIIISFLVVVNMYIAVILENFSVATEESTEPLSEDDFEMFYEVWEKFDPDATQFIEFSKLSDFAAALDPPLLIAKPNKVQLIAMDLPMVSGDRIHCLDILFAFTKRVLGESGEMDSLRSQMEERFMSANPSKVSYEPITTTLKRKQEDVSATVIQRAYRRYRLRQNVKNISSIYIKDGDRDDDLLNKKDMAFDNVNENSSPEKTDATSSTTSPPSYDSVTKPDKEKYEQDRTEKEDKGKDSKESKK
Sequence of Nav1.5 (Q14524 whole entry): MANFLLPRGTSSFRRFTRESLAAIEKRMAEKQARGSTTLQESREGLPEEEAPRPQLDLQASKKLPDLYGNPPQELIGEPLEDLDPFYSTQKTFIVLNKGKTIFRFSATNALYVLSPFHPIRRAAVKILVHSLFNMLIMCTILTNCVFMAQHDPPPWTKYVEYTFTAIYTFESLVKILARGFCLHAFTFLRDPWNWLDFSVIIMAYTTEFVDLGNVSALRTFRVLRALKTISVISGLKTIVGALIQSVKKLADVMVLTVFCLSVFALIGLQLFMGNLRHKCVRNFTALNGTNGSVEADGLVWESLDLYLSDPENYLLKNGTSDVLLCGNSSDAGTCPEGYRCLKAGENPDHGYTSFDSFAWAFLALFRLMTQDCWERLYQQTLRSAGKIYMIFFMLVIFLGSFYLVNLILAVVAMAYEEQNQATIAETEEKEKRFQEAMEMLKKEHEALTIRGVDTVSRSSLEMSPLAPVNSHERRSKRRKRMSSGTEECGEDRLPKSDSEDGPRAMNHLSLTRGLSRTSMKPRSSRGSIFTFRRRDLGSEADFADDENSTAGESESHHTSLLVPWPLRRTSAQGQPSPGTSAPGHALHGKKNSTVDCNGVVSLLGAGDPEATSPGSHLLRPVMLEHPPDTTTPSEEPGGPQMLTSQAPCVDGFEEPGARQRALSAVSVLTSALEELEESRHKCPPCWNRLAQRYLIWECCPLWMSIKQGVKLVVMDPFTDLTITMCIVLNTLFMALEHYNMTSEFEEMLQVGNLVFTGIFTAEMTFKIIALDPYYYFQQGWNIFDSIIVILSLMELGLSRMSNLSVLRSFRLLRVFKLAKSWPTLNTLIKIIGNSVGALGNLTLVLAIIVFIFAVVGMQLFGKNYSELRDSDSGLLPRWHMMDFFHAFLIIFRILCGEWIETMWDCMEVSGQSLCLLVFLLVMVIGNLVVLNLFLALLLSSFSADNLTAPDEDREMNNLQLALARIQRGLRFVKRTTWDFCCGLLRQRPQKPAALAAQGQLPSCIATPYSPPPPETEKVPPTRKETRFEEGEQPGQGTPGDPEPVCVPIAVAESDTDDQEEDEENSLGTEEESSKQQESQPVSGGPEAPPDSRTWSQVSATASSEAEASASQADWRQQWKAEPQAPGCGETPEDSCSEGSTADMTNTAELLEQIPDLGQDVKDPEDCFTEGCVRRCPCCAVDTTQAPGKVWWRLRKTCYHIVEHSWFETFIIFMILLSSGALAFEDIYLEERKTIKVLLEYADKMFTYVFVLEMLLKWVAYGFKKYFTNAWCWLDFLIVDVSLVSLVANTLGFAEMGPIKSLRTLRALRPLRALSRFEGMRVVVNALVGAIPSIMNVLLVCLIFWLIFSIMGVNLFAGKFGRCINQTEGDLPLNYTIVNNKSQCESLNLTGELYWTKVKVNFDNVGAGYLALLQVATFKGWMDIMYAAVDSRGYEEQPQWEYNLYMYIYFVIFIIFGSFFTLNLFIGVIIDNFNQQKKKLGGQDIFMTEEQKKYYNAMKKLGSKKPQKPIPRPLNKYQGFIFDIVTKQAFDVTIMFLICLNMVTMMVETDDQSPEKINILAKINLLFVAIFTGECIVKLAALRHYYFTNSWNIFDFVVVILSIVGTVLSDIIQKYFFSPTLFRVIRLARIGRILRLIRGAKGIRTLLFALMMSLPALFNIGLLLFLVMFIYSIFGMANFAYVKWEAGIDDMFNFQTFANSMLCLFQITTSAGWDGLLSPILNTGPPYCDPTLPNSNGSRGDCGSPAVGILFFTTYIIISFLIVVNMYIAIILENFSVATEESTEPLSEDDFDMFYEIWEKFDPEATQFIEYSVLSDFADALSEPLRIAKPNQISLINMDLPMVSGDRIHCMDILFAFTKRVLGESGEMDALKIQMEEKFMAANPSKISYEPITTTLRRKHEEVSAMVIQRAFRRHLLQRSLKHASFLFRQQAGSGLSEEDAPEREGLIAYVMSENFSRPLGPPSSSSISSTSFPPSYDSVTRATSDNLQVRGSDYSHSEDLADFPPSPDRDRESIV
T5 sequence (P43681 29-627): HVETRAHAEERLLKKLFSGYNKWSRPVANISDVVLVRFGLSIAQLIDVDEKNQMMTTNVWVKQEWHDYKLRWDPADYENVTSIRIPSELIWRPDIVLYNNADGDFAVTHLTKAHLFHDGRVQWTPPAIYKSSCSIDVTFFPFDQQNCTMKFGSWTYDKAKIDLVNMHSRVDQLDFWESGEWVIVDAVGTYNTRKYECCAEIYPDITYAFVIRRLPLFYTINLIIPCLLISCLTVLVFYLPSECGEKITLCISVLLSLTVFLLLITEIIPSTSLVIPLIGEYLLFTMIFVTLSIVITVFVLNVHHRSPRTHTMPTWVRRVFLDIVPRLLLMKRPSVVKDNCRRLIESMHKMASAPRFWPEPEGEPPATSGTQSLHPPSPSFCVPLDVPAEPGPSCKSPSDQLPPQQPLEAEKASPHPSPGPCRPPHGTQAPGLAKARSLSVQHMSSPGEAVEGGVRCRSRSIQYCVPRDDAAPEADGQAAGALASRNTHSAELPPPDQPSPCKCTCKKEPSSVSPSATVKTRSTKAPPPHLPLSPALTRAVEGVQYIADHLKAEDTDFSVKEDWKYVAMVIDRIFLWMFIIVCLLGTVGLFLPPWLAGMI
T5 sequence (P17787 26-502): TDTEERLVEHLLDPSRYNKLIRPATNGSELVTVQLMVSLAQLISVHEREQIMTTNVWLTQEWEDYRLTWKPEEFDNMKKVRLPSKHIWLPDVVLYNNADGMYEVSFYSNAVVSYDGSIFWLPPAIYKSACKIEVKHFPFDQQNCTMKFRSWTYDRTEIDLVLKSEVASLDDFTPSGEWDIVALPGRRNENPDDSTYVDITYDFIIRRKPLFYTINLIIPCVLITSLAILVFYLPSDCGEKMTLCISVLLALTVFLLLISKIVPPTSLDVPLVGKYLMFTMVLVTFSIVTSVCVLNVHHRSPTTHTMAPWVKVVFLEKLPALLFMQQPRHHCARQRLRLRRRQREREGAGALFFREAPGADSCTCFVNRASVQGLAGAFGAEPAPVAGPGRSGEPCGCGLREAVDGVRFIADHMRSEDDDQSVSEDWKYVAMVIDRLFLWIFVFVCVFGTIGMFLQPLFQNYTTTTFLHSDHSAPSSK

## 6 (GSVRIPVSCKHSGQCLKPCKDAGMRFGKCMNGKCDCTPK) [compound 6]
[1]; peptide at 0.2 μM
  Activity of TRPA1 with peptide, expressed as a percentage of the reference compound: 126%
[1]; peptide at 20 μM
  Activity of TRPA1 with peptide (percentage of the reference compound): 92%
[2]; [19]
  Activity of Nav1.7 with peptide, expressed as a percentage of the reference compound: 98%
  Activity of Nav1.7 with peptide (percentage of the reference compound): 116%
[2]; [20]
  Activity of Nav1.7 with peptide, expressed as a percentage of the reference compound: 95%
  Activity of Nav1.7 with peptide (percentage of the reference compound): 119%
[3]; peptide at 0.2 μM
  Activity of TRPV1 with peptide, expressed as a percentage of the reference compound: 86%
[3]; peptide at 20 μM
  Activity of TRPV1 with peptide (percentage of the reference compound): 98%
[4]; peptide at 0.2 μM
  Activity of NR2A with peptide, expressed as a percentage of the reference compound: 86%
[4]; peptide at 20 μM
  Activity of NR2A with peptide (percentage of the reference compound): 88%
[5]; peptide at 0.2 μM
  Activity of GABA with peptide, expressed as a percentage of the reference compound: 104%
[5]; peptide at 20 μM
  Activity of GABA with peptide (percentage of the reference compound): 96%
[6]; peptide at 0.2 μM
  Activity of hERG with peptide, expressed as a percentage of the reference compound: 107%
[6]; peptide at 20 μM
  Activity of hERG with peptide (percentage of the reference compound): 71%
[7]; [21]
  Activity of Nav1.5 with peptide, expressed as a percentage of the reference compound: 105%
  Activity of Nav1.5 with peptide (percentage of the reference compound): 116%
[7]; [22]
  Activity of Nav1.5 with peptide, expressed as a percentage of the reference compound: 104%
  Activity of Nav1.5 with peptide (percentage of the reference compound): 120%
[8]; peptide at 0.2 μM
  Activity of a4b2 with peptide, expressed as a percentage of the reference compound: 71%
[8]; peptide at 20 μM
  Activity of a4b2 with peptide (percentage of the reference compound): 96%
[9]; peptide at 0.2 μM
  Activity of a3b4 with peptide, expressed as a percentage of the reference compound: 100%
[9]; peptide at 20 μM
  Activity of a3b4 with peptide (percentage of the reference compound): 95%
[10]
  Activity of 5HT3a with peptide (percentage of the reference compound): 84%
  Activity of 5HT3a with peptide, expressed as a percentage of the reference compound: 85%
[11]; peptide at 0.2 μM
  Activity of Kv2.1 with peptide, expressed as a percentage of the reference compound: 103%
[11]; peptide at 20 μM
  Activity of Kv2.1 with peptide (percentage of the reference compound): 124%
[12]; peptide at 0.2 μM
  Activity of Cav2.1 with peptide, expressed as a percentage of the reference compound: 109%
[12]; peptide at 20 μM
  Activity of Cav2.1 with peptide (percentage of the reference compound): 111%
[13]; peptide at 0.2 μM
  Activity of Cav2.2 with peptide, expressed as a percentage of the reference compound: 103%
[13]; peptide at 20 μM
  Activity of Cav2.2 with peptide (percentage of the reference compound): 107%
[14]; peptide at 0.2 μM
  Activity of Kir2.1 with peptide, expressed as a percentage of the reference compound: 96%
[14]; peptide at 20 μM
  Activity of Kir2.1 with peptide (percentage of the reference compound): 94%
[15]; peptide at 0.2 μM
  Activity of Kv1.1 with peptide, expressed as a percentage of the reference compound: 96%
[15]; peptide at 20 μM
  Activity of Kv1.1 with peptide (percentage of the reference compound): 30%
[16]; peptide at 0.2 μM
  Activity of Kv1.2 with peptide, expressed as a percentage of the reference compound: 81%
[16]; peptide at 20 μM
  Activity of Kv1.2 with peptide (percentage of the reference compound): 85%
[17]; peptide at 0.2 μM
  Activity of Kv1.3 with peptide, expressed as a percentage of the reference compound: 25%
[17]; peptide at 20 μM
  Activity of Kv1.3 with peptide (percentage of the reference compound): 0%
[18]; peptide at 0.2 μM
  Activity of NR2B with peptide, expressed as a percentage of the reference compound: 92%
[18]; peptide at 20 μM
  Activity of NR2B with peptide (percentage of the reference compound): 75%

— patent US20200262877A1, “ION CHANNEL-BINDING PEPTIDES AND METHODS OF USE THEREOF” (priority 2017, published 2020)
